Experimental data reported in article PMC3176798, “Movement Protein Pns6 of Rice dwarf phytoreovirus Has Both ATPase and RNA Binding Activities”.

Experiments:
His-Pns6 [1] = molecular target: T1, His-Pns6 (Rice dwarf phytoreovirus (RDV), UniProt Q85438 1-509); experiment: competition EMSA; vs labeled S3-5; equal to other dsRNAs; EMSA: 50 mM Tris-HCl pH 7.5, 50 mM NaCl, 10% glycerol, 20 min on ice; northwestern: 20 mM Tris-HCl pH 7.5, 50 mM NaCl, 0.1% Triton X-100, 1 mM DTT, 1 mM EDTA, 0.02% Ficoll 400 (renaturation and washes at 4 C), UV crosslinking after washing; details: protein: recombinant, tags: His (pET28a), blunt
T1 sequence: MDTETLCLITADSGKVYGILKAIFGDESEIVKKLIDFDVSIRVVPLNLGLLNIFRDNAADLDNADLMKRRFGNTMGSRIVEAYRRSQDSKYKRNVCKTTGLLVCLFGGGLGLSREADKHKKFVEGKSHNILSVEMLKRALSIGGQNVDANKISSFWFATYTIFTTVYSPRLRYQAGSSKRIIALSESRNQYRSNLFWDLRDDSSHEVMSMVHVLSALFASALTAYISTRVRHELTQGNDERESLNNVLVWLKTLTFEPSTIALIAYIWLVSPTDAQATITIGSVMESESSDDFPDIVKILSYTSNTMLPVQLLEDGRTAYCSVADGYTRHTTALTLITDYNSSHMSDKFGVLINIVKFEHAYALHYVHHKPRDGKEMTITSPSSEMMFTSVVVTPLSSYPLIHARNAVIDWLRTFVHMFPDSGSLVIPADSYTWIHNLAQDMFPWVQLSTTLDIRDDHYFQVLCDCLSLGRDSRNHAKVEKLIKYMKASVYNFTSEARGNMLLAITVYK

His-Pns6 [2] = molecular target: T1, His-Pns6; experiment: competition EMSA; vs labeled S3-5a; less than sense strands; EMSA: 50 mM Tris-HCl pH 7.5, 50 mM NaCl, 10% glycerol, 20 min on ice; northwestern: 20 mM Tris-HCl pH 7.5, 50 mM NaCl, 0.1% Triton X-100, 1 mM DTT, 1 mM EDTA, 0.02% Ficoll 400 (renaturation and washes at 4 C), UV crosslinking after washing; details: protein: recombinant; tags: His (pET28a); label: 32P 5' end when probe
His-Pns6 [3] = molecular target: T1, His-Pns6; experiment: northwestern blot; EMSA: 50 mM Tris-HCl pH 7.5, 50 mM NaCl, 10% glycerol, 20 min on ice; northwestern: 20 mM Tris-HCl pH 7.5, 50 mM NaCl, 0.1% Triton X-100, 1 mM DTT, 1 mM EDTA, 0.02% Ficoll 400 (renaturation and washes at 4 C), UV crosslinking after washing; details: protein: recombinant; tags: His (pET28a); label: 32P 5' end when probe; 3' overhang 2 nt (UU) on both strands, 19 bp
His-Pns6 [4] = molecular target: T1, His-Pns6; experiment: competition EMSA; vs labeled S3-5a; higher than antisense strands; EMSA: 50 mM Tris-HCl pH 7.5, 50 mM NaCl, 10% glycerol, 20 min on ice; northwestern: 20 mM Tris-HCl pH 7.5, 50 mM NaCl, 0.1% Triton X-100, 1 mM DTT, 1 mM EDTA, 0.02% Ficoll 400 (renaturation and washes at 4 C), UV crosslinking after washing; details: protein: recombinant; tags: His (pET28a); label: 32P 5' end when probe
His-Pns6 [5] = molecular target: T1, His-Pns6; experiment: competition EMSA; vs labeled S3-5a; highest; EMSA: 50 mM Tris-HCl pH 7.5, 50 mM NaCl, 10% glycerol, 20 min on ice; northwestern: 20 mM Tris-HCl pH 7.5, 50 mM NaCl, 0.1% Triton X-100, 1 mM DTT, 1 mM EDTA, 0.02% Ficoll 400 (renaturation and washes at 4 C), UV crosslinking after washing; details: protein: recombinant; tags: His (pET28a); label: 32P 5' end when probe

B1: S3m (dsRNA)
RNA 1: CAAUCAAUAUGCUCGCCCCA
RNA 2: UGGGGCGAGCAUAUUGAUUG
His-Pns6 [1]
  binding result: binds

B2: S3-5 (dsRNA)
RNA 1: GGCAAAAUCGAGCGAACAAU
RNA 2: AUUGUUCGCUCGAUUUUGCC
His-Pns6 [1]; label: 32P 5' end when probe
  binding result: binds

B3: S3-3 (dsRNA)
RNA 1: UGUUUUGCUUGGUUCCUGAU
RNA 2: AUCAGGAACCAAGCAAAACA
His-Pns6 [1]
  binding result: binds

## AUCAGGAACCAAGCAAAACA (ssRNA) [S3-3a]
His-Pns6 [2]
  binding result: binds

## AUUGUUCGCUCGAUUUUGCC (ssRNA) [S3-5a]
His-Pns6 [2]
  binding result: binds

B4: dsR (dsRNA)
RNA 1: UUCUCCGAACGUGUCACGUUU
RNA 2: ACGUGACACGUUCGGAGAAUU
His-Pns6 [3]
  binding result: binds

## UGUUUUGCUUGGUUCCUGAU (ssRNA) [S3-3s]
His-Pns6 [4]
  binding result: binds

## GGCAAAAUCGAGCGAACAAU (ssRNA) [S3-5s]
His-Pns6 [5]
  binding result: binds
